Assays:
[1] = biological target: GmCHS7:PDZlig-CeGFP (Glycine max) (UniProt P30081)
[2] = biological target: GmCHS7:PDZlig-CeGFP (Glycine max) (UniProt P30081); remark: listed apart in the source

Sequence of UniProt P30081 (P30081 whole entry): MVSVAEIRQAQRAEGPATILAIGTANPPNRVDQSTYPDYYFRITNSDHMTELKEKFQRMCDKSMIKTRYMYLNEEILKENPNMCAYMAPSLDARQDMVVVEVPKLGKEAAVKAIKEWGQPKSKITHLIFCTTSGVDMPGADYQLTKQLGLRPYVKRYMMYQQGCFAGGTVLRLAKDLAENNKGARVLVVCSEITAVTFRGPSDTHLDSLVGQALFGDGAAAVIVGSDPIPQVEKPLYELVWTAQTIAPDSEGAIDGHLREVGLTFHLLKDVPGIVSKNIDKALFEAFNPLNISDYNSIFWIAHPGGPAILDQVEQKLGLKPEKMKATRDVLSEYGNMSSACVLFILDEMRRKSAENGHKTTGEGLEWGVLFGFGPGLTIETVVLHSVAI

titer of apigenin in strain DHF-2 (pYH153) compared to DHF-1 (pYH141) [1]: 1.1 fold | CHR ratio (CHR product to total CHS product) in E. coli BL21(DE3)-pYH153 [2]: 54.7%
Substance: GuCHR:PDZ-NeGFP (from UniProt Q61234 81-164)

Reference: publication PMC8488244
